These results are taken from the supplement of paper PMC12042874.

± gives the uncertainty stated by the source.

The data set in a line: amyloid nucleation score (Sup35N fusion, yeast selection) (log enrichment); library NNK1; higher = more nucleation; inactive = no reads after selection. An outline of the steps:
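Libraries of peptides of 20 random codons fused to Sup35N were expressed in psi-negative yeast and induced 24 hours with 100 μM copper sulfate. Selection was 7 days at 30°C on medium lacking adenine and uracil, and plasmid inserts were Illumina-sequenced before and after selection. Nucleation score is the DiMSum log enrichment of output over input reads, centred on the mode score of non-aggregating sequences, and sequences with under 100 input reads were left out.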
On to LDHNGEGFFFKGSLFVNCLA, for which the amyloid nucleation score was -0.912 ± 1.6.
With VFAVLRLPPKMTARSMGASP the figure was 0.661 ± 0.61.
Next, GGRNWFYRALR: 0.362 ± 0.63.
Next, SNFSYMSCLLGYLPLILFAA: 0.014 ± 0.21; APMNVLEVTFSYSADLTVVV: 0.167 ± 0.79; LSVNICKKY: 3.5 ± 0.1.
KTTCIDTIR showed an amyloid nucleation score of 0.565 ± 0.43.
Next, TVIFMCLTAFGTSGNHIGSR: -0.776 ± 0.81.
With LVVDRGVNGCAFSWDTNDLS the figure was -0.52 ± 0.71; with VKALGHLRPTWLEKGCNHA, 0.289 ± 0.25.
Next, SPLNKMVTFVAVLAFVFVLV: 0.114 ± 0.66.
SWRHMFYGVILGWHICSSGS came in with an amyloid nucleation score of 0.925 ± 0.28.
With FFIETVYATKNYKHW the figure was 2.76 ± 0.11; with NLAGI, 0.716 ± 0.88; with FQYEWNLVIW, -0.074 ± 0.4.
Next, FVGGVSSERYLFGWLS: -1.51 ± 1; WTVSSVIGNGWQCNRSYG: 0.247 ± 0.27; YPLFCNDHVGSSTLRRR: -0.065 ± 0.35.
Next, QIVCGSMWMLDKI: -0.297 ± 0.49; SMTVNDTLLRLRVGSAILYF: -0.852 ± 0.4; GEVSRWRMCGLSLMEGRGLQ: 0.733 ± 0.44.
The substance LRHTCVRPSWSNAIFMPNSA returned an amyloid nucleation score of 0.834 ± 0.57.
Next, DLSDLFLYHFVIWTSVNYSY: -0.562 ± 1.1.
The substance LNYTVQSDTWHLNWQP gave an amyloid nucleation score of 0.875 ± 0.93.
As to FDIDDIICIM, the amyloid nucleation score was -1.89 ± 1.4.
With EVPMVFRGNEGVSRDCSLVG, the amyloid nucleation score was -0.469 ± 0.42.
Next, RFSITSGNYFNN: -0.971 ± 0.79.
With FCVSTRRWGRAEYKRMDLLW the figure was 0.077 ± 1.
Next, FMDWIVSCGKCKIGSYYLCI: -0.388 ± 0.29; PFGDSAPKTIRIMAVLIFTV: -0.237 ± 1.9.
YFYFLVNISFISIKGCLFMP registered an amyloid nucleation score of 0.121 ± 0.4.
Next, QQRLWRNAWTDMARKVSTSR: 0.452 ± 1.2; CRAQGFDASSHYCYLFLALS: -0.427 ± 1.4; HQIFIWVVGLGTFETPRNHK: 5.96 ± 0.066.
With VFLYFIVLNANHCFIMPEHF, the amyloid nucleation score was found to be 3.42 ± 0.089.
With VFQVTWGWSCMREVELSSGT the figure was 0.343 ± 0.67; with TTLVLTADLAVNPRRWWTMI, 0.373 ± 0.43; with TNCDVVNSCTFGGNGDY, 0.151 ± 1.1.
Next, TVTLGVPRQCAGTCRMVSLN: “inactive”; GIGLGFQ: -0.563 ± 0.53.
With VPCLVRA the figure was 0.506 ± 0.99; with VLLFVRLILWTEGRYNCIMG, -0.801 ± 1.2; with NMQTYGGLKE, 0.116 ± 0.71.
Substance NINPHLLTISFHWLRPQLAP had an amyloid nucleation score of -0.745 ± 1.7.
With MLFRYRSPHTVWLIRLCMKQ the figure was 0.839 ± 0.56; with CLFWDSCYRKLLTIYDNM, -0.941 ± 0.63.
For RPNCIVINGVKWYSAYWIGI, the amyloid nucleation score was -0.915 ± 0.67.
RGSEPAIGLMMVLP registered an amyloid nucleation score of 0.458 ± 0.41.
With NDEQAVQFNIGETGVSYCFL the figure was 0.162 ± 0.77.
VAFRLTIGCVVSVSINVAGV: the amyloid nucleation score turned out to be 1.19 ± 0.62.
Substance RNNQSHGMNYFFESCVVFYC displayed an amyloid nucleation score of 7.8 ± 0.047.
For GSLLICEWLRFSRGRGVRSY, the amyloid nucleation score is 1.11 ± 0.79.
With TEGFGW the figure was 1.28 ± 0.35; with NKYNSYKKNYPKRIDWSGLN, -0.983 ± 1.4.
As to MVIPFFLSSLLSL, the amyloid nucleation score was -0.835 ± 0.7.
Next, WDSLDIHQFNKDMWQTSG: -0.909 ± 0.9; YELTRIR: 2.38 ± 0.17; PFFTIKWCNFSSFIGYEPLL: -0.161 ± 0.31.
For the substance WLVAHAPGH, the amyloid nucleation score came out at 0.471 ± 0.62.
With LDSTLSLQ the figure was 0.071 ± 0.3.
With SVCPKINLLNFVWNYYAPTA the figure was 6.869 ± 0.064.
With SVPVQD the figure was 0.633 ± 0.4; with YFTNPRCRLDAHGGFANQWW, -0.977 ± 1.4.
Take FLKSYLLRC: the amyloid nucleation score was determined as 0.012 ± 0.63.
Next, SLSKLAICMWSYIFNMSYFC: -0.139 ± 0.81; IGSMRMVSGLRFMRFVDHFS: -0.316 ± 0.42; IGSVCLQ: “inactive”.
With HGLGALYTSVRRARLGFFYC the figure was 4.23 ± 0.15; with KSRAGMNKACTQLYPLV, -0.215 ± 0.34; with YTMRGASRSTTDLLKIMIYM, -2.83 ± 2.4.
Regarding LDRVWMYTIRLLQMKAMVLP, the amyloid nucleation score is 0.497 ± 0.64.
Next, LCWRYMVLRMNFFAADLYYN: 1.39 ± 0.32.
Next, MVCTYNVRCIEMETRYPRSR: 0.791 ± 0.97; TMICFVVGFFGIQDKVVKCD: 0.135 ± 0.84; TCCVKCGCRVQRMMMCLV: -0.003 ± 0.8.
Next, MHGISQPWHKLTMTGIRLAW: -0.463 ± 0.51.
Substance RTKCKASISNIPTRWYDP returned an amyloid nucleation score of -0.469 ± 1.2.
Next, NWGWGGEFRRNMFRIVS: “inactive”; SNNGCRIQRGVRNLAKGSTL: -1.09 ± 0.9.
QYYFARIREFLSIQFIAWYC came in with an amyloid nucleation score of 0.172 ± 0.32.
As to EQFNT, the amyloid nucleation score turned out to be 0.323 ± 0.56.
Consider SDFNNTFIYSGEKQVLISTC, for which the amyloid nucleation score was -0.147 ± 0.34.
Next, TTALDFRMDAMEVFRRFDEA: 0.14 ± 0.39.
With THMGWVMHYSYETTPHARPG the figure was 3.84 ± 0.14; with TSCFCI, -0.133 ± 0.33; with RCASHKTQYKRCGGVDEQEA, 1.96 ± 0.58.
With LGMKSVKWL the figure was 0.345 ± 0.53; with ANSVQG, 0.9 ± 0.73; with GKNTYVCVGSSASSFWGSLL, 0.86 ± 0.77.
Substance VGWFSNESWYLAVNDYGPA returned an amyloid nucleation score of 0.335 ± 0.3.
Next, VKFDLMAI: -0.777 ± 1.7; MFISIGLPPQRRQDSHGWGG: 0.532 ± 0.37; NYFNL: 0.21 ± 0.46.
With LISFSCVVNSLAEPRYIFLS the figure was 1.13 ± 0.88.
With ALKGSRHDL the figure was -0.037 ± 0.73; with MWGPHCTRSTTTLVPRARKG, 0.468 ± 0.46; with QMDVRDFYSRVSGGGGYQMH, -0.074 ± 0.61.
WGNLCRNYD gave an amyloid nucleation score of 0.004 ± 0.28.
With LVDSPCQRSYTRRPHTHWR the figure was 0.15 ± 0.34.
With NVVSF the figure was -0.466 ± 1.2; with VLTRMDKFGARQTSVTQEAG, 0.102 ± 0.62.
With TAIWTSIIDL the figure was 0.96 ± 0.42; with YCLDGAFALVVNSLWLITAA, “inactive”.
SIPNSAQHFTSPPARFHSTG had an amyloid nucleation score of 0.042 ± 0.69.
With DLSKFGKHFCLLMHYGFPNH the figure was -0.3 ± 0.28.
With RAVGSDWGKVVFLLMNSEES the figure was 0.212 ± 0.31; with SSILISFI, -0.471 ± 0.94.
IMLTGLRLHVVDGEKLPMTS yielded an amyloid nucleation score of 1.01 ± 0.71.
Next, AFVEVFHQGLLRSAMSQMVS: -0.378 ± 0.74; ISNCYQVKALFVSHFLIRDR: 4.29 ± 0.047; VVNGTMFINPCYVQGRCKEM: 4.63 ± 0.067.
Next, KVIFQVYYI: 7.46 ± 0.047.
Next, STNIFSYATLSGFYTVTMIR: -0.618 ± 0.49.
In turn, NCIGMFAIDLTKDQFRGDFR came in with an amyloid nucleation score of 2.73 ± 0.31.
With FGINVVRGKCRVRSLKDIDS the figure was -0.086 ± 0.48; with FLVHSTGGHVNISFTSVIYL, 7.889 ± 0.048.
With FYRCRRSRNGGISDVFRIIP the figure was 0.242 ± 0.3; with FLLLAC, 0.197 ± 0.9; with NLCRSNTRVQNAKKCAL, -0.168 ± 0.26.
With RYRWRL, the amyloid nucleation score result is “inactive”.
Next, DMLWKRWTIYYAFYFKAWGY: 1.08 ± 0.39; SYCFFYDDMRTWWFYS: 4.4 ± 0.11; DRSDDGHNESLWAVLMRHKV: 0.315 ± 0.52.
Next, CYCSEWNWRCNTELDVLFQS: 0.818 ± 0.4; SAWSGR: 0.104 ± 0.3.
Next, YVHQRGNNTSAMLAWVLPRH: -0.766 ± 0.5; CIWSSNLFSRSSTSDWRLDT: -0.109 ± 0.29.
As for IFLGIFSGILYRLSHRLCS, the amyloid nucleation score result was “inactive”.
Next, MLTQPAEAKEARVSFCSLYM: 1.01 ± 0.53; YDLRNICTSTLMSHVNRFYV: -1.22 ± 0.83; FLCVF: 0.097 ± 0.88.
With THTRCLLVW the figure was 0.216 ± 0.46; with CWPRG, 0.326 ± 0.55; with LLGVSAF, -0.718 ± 0.68.
For IIGRLNLKMISGLI, the amyloid nucleation score turned out to be 2.15 ± 0.58.
Take LDNIMVCNYAE: the amyloid nucleation score result is “inactive”.
As for GSCGKGHLSPRALLFTHSWQ, the amyloid nucleation score is -0.446 ± 0.61.
With APEFFNSDRASIAKF the figure was -0.558 ± 0.77.
Turning to IEAYVINGKLDWALWFRGDE, the amyloid nucleation score was -0.407 ± 0.85.
In turn, ILGWHGIRFVFRTALFRR gave an amyloid nucleation score of -0.286 ± 0.41.
With YWNDVAS the figure was -0.931 ± 0.75.
